In US20150374698A1:

Target: AVP V1A receptor (mouse) (UniProt Q62463)
Assay: cell-based or functional assay

Sequence of AVP V1A receptor (mouse) (Q62463 whole entry): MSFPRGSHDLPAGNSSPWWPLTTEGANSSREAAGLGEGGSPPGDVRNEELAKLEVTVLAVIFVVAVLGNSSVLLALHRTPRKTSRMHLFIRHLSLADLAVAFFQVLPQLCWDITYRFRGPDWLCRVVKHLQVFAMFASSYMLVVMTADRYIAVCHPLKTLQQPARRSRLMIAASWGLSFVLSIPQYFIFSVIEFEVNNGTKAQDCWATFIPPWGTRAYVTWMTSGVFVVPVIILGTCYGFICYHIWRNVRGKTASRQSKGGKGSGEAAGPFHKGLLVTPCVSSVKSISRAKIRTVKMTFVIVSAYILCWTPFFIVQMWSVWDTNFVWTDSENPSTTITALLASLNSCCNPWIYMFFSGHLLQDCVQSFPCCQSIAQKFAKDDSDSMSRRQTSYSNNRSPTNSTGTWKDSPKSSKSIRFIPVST

Substance: arginine vasopressin (from UniProt P01185 20-28) (peptide)
- EC50 of contractile response, 2°-branch mesenteric artery, control mice: 0.57 nM
- EC50 of contractile response, 2°-branch mesenteric artery, sRA mice: 15.9 nM
- EC50 of contractile response, abdominal aortic rings, control mice: 2.19 nM
- EC50 of contractile response, abdominal aortic rings, sRA mice: 3.72 nM
- Maximum Response (contraction), 2°-branch mesenteric artery, control mice: 52.5%
- Maximum Response (contraction), 2°-branch mesenteric artery, sRA mice: 17.3%
- Maximum Response (contraction), abdominal aortic rings, control mice: 0.29 g
- Maximum Response (contraction), abdominal aortic rings, sRA mice: 0.12 g
